Results: paper PMC7810988, “Inositol pyrophosphates promote the interaction of SPX domains with the coiled-coil motif of PHR transcription factors to regulate plant phosphate homeostasis”

B1: pAtSPX1 biotin (dsDNA)
DNA 1: CAGAGAAAAAAGGATATTCTAATTAGAAACCTTAAGAATATTCTTTTTAATCCC
DNA 2: GGGATTAAAAAGAATATTCTTAAGGTTTCTAATTAGAATATCCTTTTTTCTCTG
B2: IRD800-pAtSPX1 (dsDNA)
DNA 1: B1 DNA 1
DNA 2: B1 DNA 2

Legend:
AtPHR1 MYB-CC Olig2 = AtPHR1 MYB-CC Olig2 (Arabidopsis thaliana, UniProt Q94CL7 222-358, L317N;L327N;I341N); test: GCI; 4 C, 300 mM NaCl; GCI at 4 C: AtPHR1 in 20 mM HEPES pH 7.5, 300 mM NaCl; OsPHR2 in 20 mM HEPES pH 7.9, 200 mM NaCl. EMSA: LI-COR Odyssey kit buffer without optional components, 50 nM oligo, 30 min at room temperature, 5% TBE gel in 0.5x TBE; conditions: protein: recombinant; tags: His6 N-terminal, TEV-cleaved; label: 5'-biotin on strand 1; blunt
AtPHR1 MYB-CC Olig2, sequence (Q94CL7 222-358 L317N/L327N/I341N): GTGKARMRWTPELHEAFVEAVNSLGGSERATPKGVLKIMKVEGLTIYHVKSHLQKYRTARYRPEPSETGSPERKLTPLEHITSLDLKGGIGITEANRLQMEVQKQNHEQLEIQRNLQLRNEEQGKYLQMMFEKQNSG

AtPHR1 MYB-CC Olig1 = AtPHR1 MYB-CC Olig1 (Arabidopsis thaliana, UniProt Q94CL7 222-358, L319N;I333N;L337N); test: EMSA; indistinguishable from wild type; GCI at 4 C: AtPHR1 in 20 mM HEPES pH 7.5, 300 mM NaCl; OsPHR2 in 20 mM HEPES pH 7.9, 200 mM NaCl. EMSA: LI-COR Odyssey kit buffer without optional components, 50 nM oligo, 30 min at room temperature, 5% TBE gel in 0.5x TBE; conditions: protein: recombinant; tags: His6 N-terminal, TEV-cleaved; label: 5'-IRD800 on both strands; blunt
AtPHR1 MYB-CC Olig1, sequence (Q94CL7 222-358 L319N/I333N/L337N): as the sequence (Q94CL7 222-358 L317N/L327N/I341N) above, with N96L, L98N, N106L, I112N, L116N, N120I counted along it

| Binder | binding signal (AtPHR1 MYB-CC Olig2) | binding result (AtPHR1 MYB-CC Olig1) |
| --- | --- | --- |
| B1 | ~20 fold reduced affinity vs wild type |  |
| B2 |  | binds |
